The record followed here is patent US20030082668.

One data set has as its system T1, Boc-Val-Leu-Lys-MCA.
T1 sequence: VLK

The next data set concerns T2, Boc-Val-Leu-(Ac)Lys-MCA.
T2 sequence: VLK

Data set [1] relates to T3, Nma-VGAK(Ac)RHSK(Dnp)-NH2.
T3 sequence: VGAKRHSK

The target of data set [2] is T4, Nma-VGAK(Ac)RHSK(Dnp)-NH2.
T4 chain: VGAKRHSK

For lysylendopeptidase, the “peptide cleavage activity (fluorescence intensity of released AMC)” value in the data set on Boc-Val-Leu-Lys-MCA is reported as “digested Boc-Val-Leu-Lys-MCA”; in the data set on Boc-Val-Leu-(Ac)Lys-MCA, “did not cleave Boc-Val-Leu-(Ac)Lys-MCA”. In addition, in data set [1], the “peptide cleavage (fluorescence intensity)” value was “In the absence of recombinant SIRT1, the fluorescence intensity did not increase, namely, the fluorescent substrate was not cleaved off by LEP at all”.

As for plasmin, the figures for the “peptide cleavage activity (fluorescence intensity of released AMC)” value in the data set with Boc-Val-Leu-Lys-MCA and in the data set with Boc-Val-Leu-(Ac)Lys-MCA were “digested Boc-Val-Leu-Lys-MCA” and “did not cleave Boc-Val-Leu-(Ac)Lys-MCA”, respectively.

B1: recombinant SIRT1 (GST fused to the amino terminal end) (protein)
chain: MADEAALALQPGGSPSAAGADREAASSPAGEPLRKRPRRDGPGLERSPGEPGGAAPEREVPAAARGCPGAAAAALWREAEAEAAAAGGEQEAQATAAAGEGDNGPGLQGPSREPPLADNLYDEDDDDEGEEEEEAAAAAIGYRDNLLFGDEIITNGFHSCESDEEDRASHASSSDWTPRPRIGPYTFVQQHLMIGTDPRTILKDLLPETIPPPELDDMTLWQIVINILSEPPKRKKRKDINTIEDAVKLLQECKKIIVLTGAGVSVSCGIPDFRSRDGIYARLAVDFPDLPDPQAMFDIEYFRKDPRPFFKFAKEIYPGQFQPSLCHKFIALSDKEGKLLRNYTQNIDTLEQVAGIQRIIQCHGSFATASCLICKYKVDCEAVRGDIFNQVVPRCPRCPADEPLAIMKPEIVFFGENLPEQFHRAMKYDKDEVDLLIVIGSSLKVRPVALIPSSIPHEVPQILINREPLPHLHFDVELLGDCDVIINELCHRLGGEYAKLCCNPVKLSEITEKPPRTQKELAYLSELPPTPLHVSEDSSSPERTSPPDSSVIVTLLDQAAKSNDDLDVSESKGCMEEKPQEVQTSRNVESIAEQMENPDLKNVGSSTGEKNERTSVAGTVRKCWPNRVAKEQISRRLDGNQYLFLPPNRYIFHGAEVYSDSEDDVLSSSSCGSNSDSGTCQSPSLEEPMEDESEIEEFYNGLEDEPDVPERAGGAGFGTDGDDQEAINEAISVKQEVTDMNYPSNKS
Consider B1, for which, in data set [2], the “NAD-dependent deacetylase activity (fluorescence intensity, lysylendopeptidase-coupled assay)” value was “the fluorescence intensity increased in an NAD concentration-dependent fashion. In the absence of NAD, regardless of the presence of the recombinant SIRT1, the fluorescence intensity did not increase” and the “deacetylase activity (fluorescence intensity, lysylendopeptidase-coupled assay)” value is on record as “the fluorescence intensity increased was proportional to the recombinant SIRT1 concentration”.
